Biological target: T1, CD6 lymphocyte surface receptor (human (endogenous in PBMC)) (UniProt P30203)
T1 sequence: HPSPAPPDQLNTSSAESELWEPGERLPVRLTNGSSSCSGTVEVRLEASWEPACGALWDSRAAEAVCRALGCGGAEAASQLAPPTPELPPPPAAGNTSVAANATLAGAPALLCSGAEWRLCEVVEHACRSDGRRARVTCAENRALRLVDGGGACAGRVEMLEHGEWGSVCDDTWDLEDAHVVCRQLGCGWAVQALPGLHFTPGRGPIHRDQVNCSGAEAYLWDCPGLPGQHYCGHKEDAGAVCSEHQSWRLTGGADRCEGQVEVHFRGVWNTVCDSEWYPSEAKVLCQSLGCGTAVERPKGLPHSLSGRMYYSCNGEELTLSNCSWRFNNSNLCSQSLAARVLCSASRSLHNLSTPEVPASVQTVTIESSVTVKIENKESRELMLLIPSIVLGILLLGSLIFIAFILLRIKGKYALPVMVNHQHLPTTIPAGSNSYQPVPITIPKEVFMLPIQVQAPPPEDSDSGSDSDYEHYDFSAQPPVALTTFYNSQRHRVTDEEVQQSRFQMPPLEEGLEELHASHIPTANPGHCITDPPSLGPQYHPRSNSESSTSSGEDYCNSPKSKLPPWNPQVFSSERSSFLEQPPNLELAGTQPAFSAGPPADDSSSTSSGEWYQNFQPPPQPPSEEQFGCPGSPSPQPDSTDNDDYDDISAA

B1: Recombinant Human ALCAM/CD166 Fc Chimera (Fc fusion)
chain: WYTVNSAYGDTIIIPCRLDVPQNLMFGKWKYEKPDGSPVFIAFRSSTKKSVQYDDVPEYKDRLNLSENYTLSISNARISDEKRFVCMLVTEDNVFEAPTIVKVFKQPSKPEIVSKALFLETEQLKKLGDCISEDSYPDGNITWYRNGKVLHPLEGAVVIIFKKEMDPVTQLYTMTSTLEYKTTKADIQMPFTCSVTYYGPSGQKTIHSEQAVFDIYYPTEQVTIQVLPPKNAIKEGDNITLKCLGNGNPPPEEFLFYLPGQPEGIRSSNTYTLTDVRRNATGDYKCSLIDKKSMIASTAITVHYLDLSLNPSGEVTRQIGDALPVSCTISASRNATVVWMKDNIRLRSSPSFSSLHYQDAGNYVCETALQEVEGLKKRESLTLIVEGKPQIKMTKKTDPSGLSKTIICHVEGFPKPAIQWTITGSGSVINQTEESPYINGRYYSKIIISPEENVTLTCTAENQLERTVNSLNVSAISIPEHDEADEISDENREKVNDQAK
  tyrosine phosphorylation of CD6 immunoprecipitated from human PBMC plated on plate-bound ALCAM (immunoblot for p-Tyr): > 2.5 fold
